Reference: paper PMC2739586 (Journal of molecular biology, 2009)

Molecular target: the molecule itself
Experiment: crystal structure

B1: Miner1 (C92S), soluble region of human Miner1 (amino acids 57-135) (domain or fragment)
chain: GSHMRPFLPKKKQQKDSLINLKIQKENPKVVNEINIEDLSLTKAAYCRCWRSKTFPACDGSHNKHNELTGDNVGPLILKKKEV
  stoichiometry N: 2
